PMC8244865, “Recruitment of phospholipase Cγ1 to the non-structural membrane protein pK15 of Kaposi Sarcoma-associated herpesvirus promotes its Src-dependent phosphorylation” (PLoS Pathogens, 2021)
Non-standard residues stand in square brackets, D forms with d. No end group written: not given here. pY = N[C@@H](Cc1ccc(OP(=O)(O)O)cc1)C(=O)O

Key:
[1] = biological target: GST-fused pK15 cytoplasmic tail (pK15 CT WT), phosphorylated in vitro by Src (UniProt Q9QR69); assay: AlphaLISA; details: read off a plot
[2] = biological target: GST-pK15 CT N2 truncation mutant, phosphorylated in vitro by 2xStrep-Src (UniProt Q9QR69); assay: AlphaLISA; details: parent: est. 17000; read off a plot
[3] = tested on: PLCγ1 tSH2 domain (Src-mediated phosphorylation, Y^783); assay: in vitro Src kinase assay, PLCγ1 tSH2 Y783 phosphorylation; type: biochemical; details: 0.6 μM tSH2, 0.085 μM Src, 1.25–5 μM peptide or fixed 5.0 μM; 37°C; 1 hour or 45 min (method); pY783 Western blot
Method: Fig 7 The pK15 CT domain enhances Src-mediated phosphorylation of the PLCγ1 tSH2 domain. (A) The purified PLCγ1 tSH2 domain (0.6 μM) was incubated with limiting amounts (0.085 μM) of recombinant purified Src kinase expressed in insect cells in the presence of increasing concentrations (1.25–5 μM) of phosphorylated peptides representing the last 12 (pK15 12mer) or 35 (pK15 35mer) amino acids of the pK15 cytoplasmic domain for 1 hour at 37°C. The reaction was stopped using SDS sample buffer and analysed by SDS-PAGE and Western blot using an antibody to the PLCγ1 pY^783 residue (top panel) or to the His tag on the recombinant tSH2 domain (bottom panel). (B) Same as above, except that a fixed concentration (5.0 μM) of the 12mer peptide, the 35mer peptide or the pK15 truncation construct GST-pK15 CT^N2 [51] were used. The increased phosphorylation of the tSH2 domain in the presence of the 35mer peptide and pK15 CT^N2 can be seen. (C) Increasing concentrations of the phosphorylated pK15 12mer peptide were used to inhibit the increased src-mediated phosphorylation of tSH2 induced by 2.5 μM of the pK15 35mer peptide. Experimental conditions were as in panel A.
To test the impact of a pK15 CT fragment (pK15 CT^N2) or phosphorylated pK15 peptides representing the last 12 (DDLp[…]) or 35 ([…]pYEEVLFRN) amino acids of pK15 CT on the Src-mediated phosphorylation of the PLCγ1 tSH2 domain, GST-pK15CT^N2 was first phosphorylated with Src in vitro as described in the preceding paragraph. Phosphorylated GST-pK15 CT^N2 or the phosphorylated pK15 peptides, suspended in 50 mM Tris pH7.4, 300 mM NaCl, 1 mM DTT, were then added to the purified recombinant tSH2 domain (0.6 μM) together with a limiting amount of recombinant Src kinase (0.085 μM) in kinase buffer (20 mM Tris pH7.4, 20 mM NaCl, 1 mM DTT, 10 mM MgCl2, 0.2 mM ATP, 0.5 mM Sodium orthovanadate, 0.5 mM β-glycerophosphate) and the reaction allowed to proceed for 45 min. The reaction mix was then analysed by Western blot using an antibody to the phosphorylated Y^783 in the linker region of the PLCγ1 tSH2 domain and an antibody to the 5x His tag. To test the inhibitory effect of the phosphorylated 12mer pK15 peptide on the enhancement of PLCγ1 tSH2 domain phosphorylation induced by the pK15 35mer peptide, increasing concentrations (1.25–5.0 μM) of the 12mer peptide were added to a reaction mix containing the purified recombinant tSH2 domain (2.5 μM), the phosphorylated pK15 35mer (2.5 μM), and recombinant Src kinase (0.085 μM). Following a 45 min incubation at 37°C, the reaction mixture was analysed by Western blot as above.

[4] = biological target: T1, GST-fused pK15 cytoplasmic tail (pK15 CT WT), phosphorylated in vitro by Src, Q9QR69; assay: AlphaLISA; details: chain shown with the change;, read off a plot
T1 chain: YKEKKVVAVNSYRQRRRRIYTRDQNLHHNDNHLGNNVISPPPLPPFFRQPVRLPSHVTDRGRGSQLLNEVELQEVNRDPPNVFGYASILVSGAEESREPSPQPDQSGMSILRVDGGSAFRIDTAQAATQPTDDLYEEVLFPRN

[5] = biological target: T2, GST-pK15 CT N2 truncation mutant, phosphorylated in vitro by 2xStrep-Src, Q9QR69; assay: AlphaLISA; details: chain shown with the change;, read off a plot
T2 chain: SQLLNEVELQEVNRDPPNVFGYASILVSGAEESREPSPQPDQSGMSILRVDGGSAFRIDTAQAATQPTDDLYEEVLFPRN

[6] = biological target: T3, PLCγ1 tSH2 domain (aa 545-790) (UniProt P19174 545-790); assay: microfluidic diffusional sizing (Fluidity One-W); 200 nM 5,6-FAM peptide held constant, PLCγ1 domains varied from 0 nM to 8000 nM, room temperature, 100 mM MES, 150 mM NaCl, 3 mM TCEP, pH 6.5; hydrodynamic radius fitted; triplicate; details: both partners purified
T3 construct: also called WT tSH2; source: E. coli BL21(DE3), purified (HisTrap, 3C cleavage, SEC)
T3 sequence (looked up): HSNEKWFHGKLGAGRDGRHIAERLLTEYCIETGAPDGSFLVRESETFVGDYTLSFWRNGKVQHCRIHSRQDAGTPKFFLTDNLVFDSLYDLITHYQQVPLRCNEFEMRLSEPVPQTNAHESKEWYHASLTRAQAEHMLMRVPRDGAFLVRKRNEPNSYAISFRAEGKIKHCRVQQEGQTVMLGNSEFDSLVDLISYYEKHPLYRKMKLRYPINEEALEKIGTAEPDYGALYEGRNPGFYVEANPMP

[7] = biological target: T4, PLCγ1 tSH2 R586L (aa 545-790) (UniProt P19174 545-790, R586L); assay: as above; details: both partners purified
T4 construct: source: E. coli BL21(DE3), purified (HisTrap, 3C cleavage, SEC)
T4 sequence (looked up): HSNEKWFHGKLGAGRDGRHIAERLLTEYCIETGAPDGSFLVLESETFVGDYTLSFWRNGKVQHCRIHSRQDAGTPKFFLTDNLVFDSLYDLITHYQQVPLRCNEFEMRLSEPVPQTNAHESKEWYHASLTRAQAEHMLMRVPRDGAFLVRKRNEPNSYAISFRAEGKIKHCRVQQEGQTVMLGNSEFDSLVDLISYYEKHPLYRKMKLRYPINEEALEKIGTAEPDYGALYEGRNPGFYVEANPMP

[8] = biological target: T5, PLCγ1 tSH2 R694L (aa 545-790) (UniProt P19174 545-790, R694L); assay: as above; details: both partners purified
T5 construct: source: E. coli BL21(DE3), purified (HisTrap, 3C cleavage, SEC)
T5 sequence (looked up): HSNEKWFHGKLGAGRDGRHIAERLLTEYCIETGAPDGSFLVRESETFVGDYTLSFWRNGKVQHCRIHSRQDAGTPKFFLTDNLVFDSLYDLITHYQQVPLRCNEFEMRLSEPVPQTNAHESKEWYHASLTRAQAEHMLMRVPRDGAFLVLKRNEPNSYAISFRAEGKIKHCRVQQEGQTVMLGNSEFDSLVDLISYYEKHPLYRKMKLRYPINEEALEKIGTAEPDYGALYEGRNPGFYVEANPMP

[9] = biological target: T6, PLCγ1 nSH2 domain (aa 545-662) (UniProt P19174 545-662); assay: as above; details: both partners purified
T6 construct: 15N-labelled for the NMR titration; source: E. coli BL21(DE3), purified (HisTrap, 3C cleavage, SEC)
T6 sequence (looked up): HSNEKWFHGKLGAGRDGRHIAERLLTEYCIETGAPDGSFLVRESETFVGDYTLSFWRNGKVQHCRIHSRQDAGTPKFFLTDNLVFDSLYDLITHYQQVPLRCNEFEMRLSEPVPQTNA

[10] = biological target: T7, PLCγ1 cSH2 domain (aa 668-790) (UniProt P19174 668-790); assay: as above; details: both partners purified
T7 construct: PLCγ1 C-terminal SH2 domain with the cSH2-SH3 linker, residues 668-790; 15N-labelled for the NMR titration; also called cSH2 (668–790); source: E. coli BL21(DE3), purified (HisTrap, 3C cleavage, SEC)
T7 sequence (looked up): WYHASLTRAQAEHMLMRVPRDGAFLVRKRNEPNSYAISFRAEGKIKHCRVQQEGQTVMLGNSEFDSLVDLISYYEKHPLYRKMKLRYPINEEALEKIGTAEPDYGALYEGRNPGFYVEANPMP

## His-tagged purified PLCγ1 SA (γ-specific array) R586L; R694L
[1]; parent: est. 4000
  response: 700

## His-tagged purified PLCγ1 tandem SH2 (tSH2) domain R586L; R694L
[1]; parent: est. 13000
  response: 350

## His-tagged purified PLCγ1 tandem SH2 (tSH2) domain R694L
[1]; parent: est. 13000
  response: 850

## His-tagged purified PLCγ1 cSH2 domain R694L
[1]; parent: est. 19000
  response: 1000
[2]
  response: 250

## SILRVDGGSAFRIDTAQAATQPTDDLpYEEVLFRN [pK15 35mer, phosphorylated pK15 peptide corresponding to the last 35 amino acids of pK15 CT]
[3]
  effect on Src-mediated phosphorylation of PLCγ1 tSH2: enhanced the Src-mediated phosphorylation of the PLCγ1 tSH2 domain in a dose dependent manner

## His-tagged purified PLCγ1 SA (γ-specific array) R694L
[1]; parent: est. 4000
  response: 1400

B1: His-tagged purified PLCγ1 tandem SH2 (tSH2) domain R586L (protein)
chain: HSNEKWFHGKLGAGRDGRHIAERLLTEYCIETGAPDGSFLVLESETFVGDYTLSFWRNGKVQHCRIHSRQDAGTPKFFLTDNLVFDSLYDLITHYQQVPLRCNEFEMRLSEPVPQTNAHESKEWYHASLTRAQAEHMLMRVPRDGAFLVRKRNEPNSYAISFRAEGKIKHCRVQQEGQTVMLGNSEFDSLVDLISYYEKHPLYRKMKLRYPINEEALEKIGTAEPDYGALYEGRNPGFYVEANPMP
[4]; parent: est. 13000
  response: 9800
[5]; parent: est. 14000
  response: 12000

B2: 5,6-FAM-labelled phosphorylated pK15 12mer peptide (peptide)
peptide: {5,6‑FAM}-DDL[pY]EEVLFPRN
notes: last 12 residues of KSHV pK15 cytoplasmic tail; also called 5,6-FAM-labelled pK15 (12mer); phosphorylated pK15 peptide; source: synthetic peptide, bought: Caslo ApS
[6]
  Kd: 1.5 ± 0.45 µM
[7]
  Kd: 0.44 ± 0.077 µM
[8]
  Kd: 6.32 ± 0.475 µM
[9]
  Kd: 0.18 ± 0.043 µM
[10]
  Kd: 0.166 ± 0.03 µM

B3: His-tagged purified PLCγ1 SA (γ-specific array) R586L (protein)
chain: SIKNGILYLEDPVNHEWYPHYFVLTSSKIYYSEETSSDQGNEDEEEPKEVSSSTELHSNEKWFHGKLGAGRDGRHIAERLLTEYCIETGAPDGSFLVLESETFVGDYTLSFWRNGKVQHCRIHSRQDAGTPKFFLTDNLVFDSLYDLITHYQQVPLRCNEFEMRLSEPVPQTNAHESKEWYHASLTRAQAEHMLMRVPRDGAFLVRKRNEPNSYAISFRAEGKIKHCRVQQEGQTVMLGNSEFDSLVDLISYYEKHPLYRKMKLRYPINEEALEKIGTAEPDYGALYEGRNPGFYVEANPMPTFKCAVKALFDYKAQREDELTFIKSAIIQNVEKQEGGWWRGDYGGKKQLWFPSNYVEEMVNPVALEPEREHLDENSPLGDLLRGVLDVPACQIAIRPEGKNNRLFVFSISMASVAHWSLDVAADSQEELQDWVKKIREVAQ
[4]; parent: est. 4000
  response: 3800
[5]; parent: est. 700
  response: 300
